# Source: paper PMC2930062 (Journal of cellular biochemistry, 2010)
# T1: RANBP17^1-252, GAL4 DNA binding domain fusion (pM) (human (cDNA library of DU145 cells), UniProt Q9H2T7 1-252)
# T1 sequence (looked up): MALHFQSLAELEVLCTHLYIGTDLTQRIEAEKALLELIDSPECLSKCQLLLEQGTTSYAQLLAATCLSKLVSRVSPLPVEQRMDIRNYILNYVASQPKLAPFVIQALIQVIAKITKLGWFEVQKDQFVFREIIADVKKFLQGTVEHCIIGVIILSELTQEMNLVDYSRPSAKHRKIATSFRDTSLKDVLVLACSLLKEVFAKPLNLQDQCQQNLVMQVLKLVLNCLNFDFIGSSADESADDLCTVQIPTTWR
# Molecular target: T1, RANBP17^1-252, GAL4 DNA binding domain …
# Test: two-hybrid
binder,measurement,value
"E12^508-654, VP16 activation domain fusion (pVP16) (domain or fragment, human, UniProt P15923 508-654, looked up) TSAADHSEEEKKELKAPRARTSPDEDEDDLLPPEQKAEREKERRVANNARERLRVRDINEAFKELGRMCQLHLNSEKPQTKLLILHQAVSVILNLEQQVRERNLNPKAACLKRREEEKVSGVVGDPQMVLSAPHPGLSEAHNPAGHM",fold increase in luciferase activity against empty vector transfectants,5.7 fold
